These results are taken from EP4789728A2 (Serpin Pharma, LLC, dated 2026).

No end group written: not given here.

Test [1] addresses T1, recombinant LRP1-FC fusion protein (Cluster II) (UniProt Q07954 805-1184, limits assumed).
T1 construct: domain: Cluster II; Captured on protein G Dynabeads; not shown: Fc part
T1 sequence (looked up): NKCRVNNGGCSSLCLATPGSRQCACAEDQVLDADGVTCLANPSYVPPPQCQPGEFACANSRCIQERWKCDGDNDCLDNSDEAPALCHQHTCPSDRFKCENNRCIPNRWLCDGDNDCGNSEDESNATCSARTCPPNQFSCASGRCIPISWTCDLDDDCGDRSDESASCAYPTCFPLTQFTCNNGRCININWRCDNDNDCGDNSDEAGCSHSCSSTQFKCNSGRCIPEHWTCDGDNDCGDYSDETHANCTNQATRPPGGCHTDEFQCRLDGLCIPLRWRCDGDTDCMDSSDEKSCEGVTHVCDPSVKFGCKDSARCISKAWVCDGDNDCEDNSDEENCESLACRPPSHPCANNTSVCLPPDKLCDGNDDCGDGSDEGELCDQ
The test is described as follows: Cy5.5-labelled peptide on LRP1-FC (Cluster II) protein G beads, flow cytometry. For orientation: Flow cytometry measures light scatter and fluorescence of single cells or particles in a stream.

In test [2] the target is T2, Recombinant LRP1 (Cluster II) (UniProt Q07954 805-1184, limits assumed).
T2 construct: domain: Cluster II; Coated on the ELISA plate
T2 sequence (looked up): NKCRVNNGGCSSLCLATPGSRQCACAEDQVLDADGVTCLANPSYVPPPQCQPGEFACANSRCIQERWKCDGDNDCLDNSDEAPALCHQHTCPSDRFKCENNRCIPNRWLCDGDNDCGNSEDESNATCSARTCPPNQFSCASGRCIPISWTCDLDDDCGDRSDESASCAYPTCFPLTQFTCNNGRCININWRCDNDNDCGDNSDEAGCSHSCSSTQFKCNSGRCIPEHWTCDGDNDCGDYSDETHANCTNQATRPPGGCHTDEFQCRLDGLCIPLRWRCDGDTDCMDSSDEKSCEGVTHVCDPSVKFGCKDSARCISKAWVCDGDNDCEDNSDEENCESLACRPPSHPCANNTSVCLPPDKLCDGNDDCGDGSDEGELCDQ
The test is described as follows: ELISA, plate-bound recombinant LRP1 (Cluster II), increasing concentrations of biotinylated peptide, streptavidin HRP. (In general: In an ELISA, binding on a coated surface is turned into a signal by an enzyme label.)

A further test has as its target TMPRSS2 (UniProt O15393 106-492, limits assumed). Briefly: cell-based or functional assay.

Sequence of TMPRSS2 (O15393 106-492 limits assumed): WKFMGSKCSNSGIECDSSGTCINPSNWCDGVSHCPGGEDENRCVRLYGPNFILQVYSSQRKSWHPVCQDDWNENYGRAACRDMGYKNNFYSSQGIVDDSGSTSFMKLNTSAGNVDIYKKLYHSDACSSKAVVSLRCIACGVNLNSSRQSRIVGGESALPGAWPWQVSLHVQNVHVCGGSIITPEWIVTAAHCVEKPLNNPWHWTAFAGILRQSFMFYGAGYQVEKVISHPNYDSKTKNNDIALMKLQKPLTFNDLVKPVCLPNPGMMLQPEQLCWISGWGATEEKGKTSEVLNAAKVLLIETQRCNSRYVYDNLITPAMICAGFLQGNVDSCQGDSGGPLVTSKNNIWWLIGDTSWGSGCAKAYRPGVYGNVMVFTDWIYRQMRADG

B1: SP34 (Scrambled Core) (peptide)
peptide: FPKMVPQFNTELKIFPEVNIK
modifications: also: biotinylated in ELISA, site not given here, labelled with Cy5.5 in bead assay, site not given here
notes: Contains the amino acids found in SP16 in scrambled orientation; also called scrambled control; scrambled control SP34 peptide
Turning to B1, the values for the binding result in test [1] and in test [2] were “no binding (tested: 1µg/ml)” and “no binding”, respectively.
For the molecule VKFNKAAAAAAIEQNTK (not fully specified, also called SP16AALRP1 peptide) [SP16AALRP1], the binding result in test [1] is “no binding (tested: 1µg/ml)”.

B2: SP163M (peptide)
peptide: VKFNKPFVFLXIEQNTK
modifications: not fully specified; Norleucine (Nle) in place of the methionine (VKFNKPFVFL[Nle]IEQNTK); N-terminus acetylated; C-terminus amidated; biotinylated in the ELISA (Figure 3); labelled with Cy5.5 in the bead assay (Figure 4)
On to B2, for which the “IC50 of inhibition of TMPRSS2 activity” value with TMPRSS2 was found to be 1.12 µg/mL.
